Square brackets hold non-standard residues; d marks the D form. Ends that are not written are not given here. pS = N[C@@H](COP(=O)(O)O)C(=O)O

The target in experiment [1] is HLA-A2 (heavy chain with β2-microglobulin) (human | ). As to the kind of experiment: radioligand binding; competitive peptide binding assay: test peptide (100,000-fold concentration range, triplicate) displaces a radiolabeled peptide from HLA-A2 (refolded with […]); MHC-peptide complexes captured on plates coated with antibody W6/32; IC50 taken as a reasonable approximation of the dissociation constant. The conditions noted are these: both partners purified.

The target in experiment [2] is HLA-A2 (heavy chain with β2-microglobulin) (human | , Heavy-chain limits are not given; taken from the longest deposited entity of this paper (mature 1-276, A*02:01). Bound peptide not included: the test peptide is the partner, and the affinity-assay c). The experiment is described as above. Conditions: both partners purified.

B1: RQIp, phosphopeptide RQIpSQDVKL derived from adenosine monophosphate deaminase 2 (AMPD2) (peptide)
peptide: RQI[pS]QDVKL
notes: stretch of adenosine monophosphate deaminase 2 (AMPD2); source: synthetic peptide
Take B1: the affinity in experiment [1], expressed as Kd, was 25.5 nM.

B2: RQA_Vnp, unmodified peptide RQASIELPSMAV derived from Lymphocyte Specific Protein 1 (LSP-1) (peptide)
peptide: RQASIELPSMAV
notes: stretch of Lymphocyte Specific Protein 1 (LSP-1); source: synthetic peptide
On to B2, for which, in experiment [2], the affinity, expressed as Kd, was 26 nM.

B3: RQInp, unmodified peptide RQISQDVKL derived from adenosine monophosphate deaminase 2 (AMPD2) (peptide)
peptide: RQISQDVKL
notes: stretch of adenosine monophosphate deaminase 2 (AMPD2); also called non-phosphorylated RQI; source: synthetic peptide
As to B3, the Kd – broadly, the constant that tells how readily two partners part at equilibrium – in experiment [2] turned out to be 1920 nM. This Kd is about 74-fold higher than that of the molecule before.

These data come from article PMC5589570, “The antigenic identity of human class I MHC phosphopeptides is critically dependent upon phosphorylation status” (Oncotarget, 2017).
